Test results published in article doi:10.1101/2025.01.10.632409.

Molecular target: TatC from Pisum sativum (thylakoidal) (Pisum sativum (endogenous in pea thylakoids))
Assay: native gel or EMSA

stoichiometry N: 3
Substance: TatC from Pisum sativum (thylakoidal) (natural protein)
